Measurements: paper PMC9036094, “Antigen-derived peptides engage the ER stress sensor IRE1α to curb dendritic cell cross-presentation” (The Journal of Cell Biology, 2022)

How the values were obtained:
IRE1α in TAP1 KO BMDCs = experiment: IRE1α activation in TAP1-disrupted BMDCs (immunoblot); assay type: cell-based, mouse; settings: CRISPR/Cas9 TAP1; ovalbumin 500 μg/ml, 4 h
Protocol: Figure 1. Antigen pulsing of BMDCs activates IRE1α. (A) BMDCs were pulsed with ovalbumin (starting at 62.5 μg/ml and sequentially doubled) and analyzed by immunoblot (IB) for the indicated markers. (B) BMDCs were pulsed with ovalbumin (starting at 500 μg/ml and sequentially halved) or […] (1 μM), or stimulated with tunicamycin (1 μg/ml) or poly-I:C (25 μg/ml) for 4 h, and analyzed by IB. (C) BMDCs were pulsed with ovalbumin (500 μg/ml) for indicated time points and analyzed by IB. (D) BMDCs were pulsed for 4 h with ovalbumin or lysates derived from the indicated cell lines (500 μg/ml protein) and analyzed by IB. […] (F) Upon removal from bone marrow, total bone marrow cells were transfected with non-targeting control (NTC) or TAP1-targeting gRNAs, along with CRISPR/Cas9 delivery constructs. Cells were then subjected to standard BMDC-differentiation protocol, pulsed with ovalbumin (500 μg/ml) for 4 h, and analyzed by IB. All IB images are representative of at least two similar experiments, and molecular weights represent kD. Source data are available for this figure: SourceData F1.
Cells were lysed in PBS solution supplemented with 1X radioimmunoprecipitation assay buffer (Millipore) and 2X Halt protease-phosphatase inhibitor cocktail (Thermo Fisher Scientific). […]

[1] = tested on: IRE1α in MyD88 KO Flt3L-derived BMDCs; experiment: IRE1α activation in MyD88 KO Flt3L-derived BMDCs (immunoblot); assay type: cell-based, mouse; settings: ovalbumin 500 μg/ml or LPS 10 μg/ml, 4 h
Protocol: Figure S1. Antigen pulsing of BMDCs activates IRE1α. (A) BMDCs were treated with MG132 (5 μM) or ovalbumin (500 μg/ml) for indicated time points and analyzed by IB. (B) BMDCs were pulsed with ovalbumin (500 μg/ml) and G9668 (3 μM) for indicated time periods and analyzed by IB. (C) Molecular structure, potency, and kinase selectivity of G9668. (D) Schematic representation of G9668 interaction with 220 kinases at 1 μM. Size and color of circles represent interaction strength. Analysis was conducted by KinomeScan. (E) BMDCs were pulsed for 4 h with APC-tagged ovalbumin or soluble CD4-Fc protein (500 μg/ml) with amiloride (10 μM); uptake of protein was assayed by flow cytometry (n = 3). (F) WT or MyD88 KO Flt3L-derived BMDCs were pulsed with ovalbumin (500 μg/ml) or soluble CD4-Fc protein (500 μg/ml), or treated with LPS (10 μg/ml) for 4 h and analyzed by IB. (G) MEFs and BMDCs were pulsed with ovalbumin or treated with Tg (100 nM) for 4 h and analyzed by IB. Images in A, B, F, and G represent at least two similar experiments, and molecular weights represent kD; E bar graphs represent mean ± SD from three independent biological repeats. Analysis for E was performed using unpaired, two-tailed t test; *, P ≤ 0.05; **, P ≤ 0.01. Source data are available for this figure: SourceData FS1. […]

B1: ovalbumin: classical protein antigen ovalbumin (Sigma-Aldrich) (protein)
chain: MGSIGAASMEFCFDVFKELKVHHANENIFYCPIAIMSALAMVYLGAKDSTRTQINKVVRFDKLPGFGDSIEAQCGTSVNVHSSLRDILNQITKPNDVYSFSLASRLYAEERYPILPEYLQCVKELYRGGLEPINFQTAADQARELINSWVESQTNGIIRNVLQPSSVDSQTAMVLVNAIVFKGLWEKAFKDEDTQAMPFRVTEQESKPVQMMYQIGLFRVASMASEKMKILELPFASGTMSMLVLLPDEVSGLEQLESIINFEKLTEWTSSNVMEERKIKVYLPRMKMEEKYNLTSVLMAMGITDVFSSSANLSGISSAESLKISQAVHAAHAEINEAGREVVGSAEAGVDAASVSEEFRADHPFLFCIKHIATNAVLFFGRCVSP
- IRE1α stimulation upon TAP1 disruption (IRE1α in TAP1 KO BMDCs): prevented IRE1α stimulation
- IRE1α activation, MyD88 KO BMDCs [1]: unimpeded IRE1α stimulation
